This note sets out measurements from paper PMC5312596, “A novel Pfs38 protein complex on the surface of Plasmodium falciparum blood-stage merozoites” (Malaria Journal, 2017).

To fix the notation:
B2: recombinant Pfs38 (6-Cys domain, aa 153–328) (domain or fragment)
chain: KIPGCDFNADYKESTAITTFSNMSPRRVKVCDVYPKSGDFISLMCPSDYSIKPDGCFSNVYVKRYPNEEVKEEDRFNLNRKWDASKYNVVSIETVLKMNMITQGDKYSIFSKLPDVKDQVDFTCICQSNDEQDNLMMNVYINNTSYLTNNTRSIGVNKHSFSNSEIFERIEREEIS
notes: Pfs38, Plasmodium falciparum 6-Cys protein; 6-Cys domain aa 153-328, amplified from a codon-optimised synthetic gene (aa 22-328) and cloned in pET28b between NcoI and XhoI; Cloning in pET28b between NcoI and XhoI would give a C-terminal His6 (surmised); The forward primer adds a few residues (Met-Gly-Ser) before the insert (surmised from the primer); also called rPfs38

For assay [1], the target named is B2. The assay can be described thus: SPR; BIACORE 2000, 37 °C, HBS-EP buffer; GLURP R2 immobilised (up to 400 RU) on CM5 chip; Pfs38 injected at increasing concentrations, 20 µL/min; 1:1 Langmuir fit. Particulars: both partners purified.
In assay [2] the target is T1, recombinant PfMSP-1_(65) (aa 1052–1664) (Plasmodium falciparum 3D7, UniProt Q8I0U8 1052-1664).
T1 construct: Merozoite surface protein 1 (MSP-1), Plasmodium falciparum 3D7, aa 1052-1664, amplified from 3D7 cDNA and cloned in pET28b (NcoI/XhoI); Cloning in pET28b between NcoI and XhoI would give a C-terminal His6 (surmised); also called rPfMSP-1_(65); source: E. coli BL21, soluble, purified (Ni-NTA)
T1 sequence: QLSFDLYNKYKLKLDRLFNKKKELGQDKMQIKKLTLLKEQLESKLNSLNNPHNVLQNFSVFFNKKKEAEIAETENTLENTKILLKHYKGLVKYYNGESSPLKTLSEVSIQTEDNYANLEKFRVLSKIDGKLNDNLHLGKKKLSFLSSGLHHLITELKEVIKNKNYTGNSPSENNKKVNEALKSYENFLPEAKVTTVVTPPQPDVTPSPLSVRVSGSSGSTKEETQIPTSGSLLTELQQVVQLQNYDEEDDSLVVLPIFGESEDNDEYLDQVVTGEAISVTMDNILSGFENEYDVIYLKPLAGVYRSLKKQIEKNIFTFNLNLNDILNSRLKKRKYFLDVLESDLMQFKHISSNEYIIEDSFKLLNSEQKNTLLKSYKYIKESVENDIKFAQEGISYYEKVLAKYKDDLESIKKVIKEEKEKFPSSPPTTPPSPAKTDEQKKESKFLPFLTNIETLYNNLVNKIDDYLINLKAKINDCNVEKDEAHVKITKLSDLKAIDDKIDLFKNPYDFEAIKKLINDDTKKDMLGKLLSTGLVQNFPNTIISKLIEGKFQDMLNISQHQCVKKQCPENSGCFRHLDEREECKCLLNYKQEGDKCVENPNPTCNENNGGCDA
As to the kind of experiment: far-Western, overlay or dot blot; 1-5 µg recombinant protein separated by SDS-PAGE, blotted, denatured and renatured; membrane incubated with 2 µg/mL purified GLURP R2, Pfs38 or SERA-5 in 100 mM NaCl, 20 mM Tris pH 7.6, 0.5 mM EDTA, 10% glycerol, 1 mM DTT, 2 h at RT; detected with antisera to the soluble protein. Particulars: both partners purified.

B1: recombinant GLURP R2 (domain or fragment)
chain: DGPVPSKPFEEIEKVDVQPKIVDLQIIEPNFVDSQPNPQEPVEPSFVKIEKVPSEENKHASVDPEVKEKENVSEVVEEKQNSQESVEEIPVNEDEFEDVHTEQLDLDHKTVDPEIVEVEEIPSELHENEVAHPEIVEIEEVFPEPNQNNEFQEINEDDKSAHIQHEIVEVEEILPEDDKNEKVEHEIVEVEEILPEDKNEKGQHEIVEVEEILPEDDKNEKVEHEIVEVEEILPEDKNEKGQHEIVEVEEILPEDKNEKVEHEIVEVEEILPEDKNEKGQHEIVEVEEILPEDKNEKVQHEIVEVEEILPEDKNEKGQHEIVEVEEILPEEDKNEKGQHEIVEVEEILPEDKNEKVQHEIVEVEEILPEDKNEKVQHEIVEVEEILPEIVEIEEVPSQTNNNENIETIKPEEKKNEFSVEEKAIPQEPVVPTLNENENVTPKPSEGESTKPDIVQIKIVQENKPNKKETPVVDG
modifications: Limits are not printed. The conventional GLURP R2 fragment (705-1178, F32 strain, 1271-aa GLURP) is assumed. The 3D7 orthologue is Q8IJ56.
Take B1: the Kd in assay [1] is 26 nM.

B2: in assay [2], the binding result is “binds”.
